Experimental data as given in patent US20230002460A1 (YUHAN, published 2023).
Substitutions are numbered along the chain they refer to. In names and notes the source's numbering stands.

B1: long-acting GDF15 fusion protein (dimer) FWT + Fc_hole (ΔN2) (Fc fusion)
chain 1: APALAGGPSVFLFPPKPKDTLMISRTPEVTCVVVDVSHEDPEVKFNWYVDGVEVHNAKTKPREEQYNSTYRVVSVLTVLHQDWLNGKEYKCKVSNKALPAPIEKTISKAKGQPREPQVYTLPPSREEMTKNQVSLWCLVKGFYPSDIAVEWESNGQPENNYKTTPPVLDSDGSFFLYSKLTVDKSRWQQGNVFSCSVMHEALHNHYTQKSLSLSPGKGGGGSGGGGSGGGGSGGGGSGGGGSNGDHCPLGPGRCCRLHTVRASLEDLGWADWVLSPREVQVTMCIGACPSQFRAANMHAQIKTSLHRLKPDTVPAPCCVPASYNPMVLIQKTDTGVSLQTYDDLLAKDCHCI
chain 2: not shown
B2: long-acting GDF15 fusion protein (dimer) FM4 + Fc_hole (ΔN2, N56C, D103C) (Fc fusion)
chain 1: B1 chain 1 with N296C, D343C
chain 2: not shown
B3: long-acting GDF15 fusion protein (dimer) FM4-1 + Fc_hole (ΔN2, N56S, D103S) (Fc fusion)
chain 1: B1 chain 1 with N296S, D343S
chain 2: not shown
B4: long-acting GDF15 fusion protein (dimer) FM4-2 + Fc_hole (ΔN2, D103L) (Fc fusion)
chain 1: B1 chain 1 with D343L
chain 2: not shown
B5: long-acting GDF15 fusion protein (dimer) FM4-3 + Fc_hole (ΔN2, N56L) (Fc fusion)
chain 1: B1 chain 1 with N296L
chain 2: not shown
B6: long-acting GDF15 fusion protein (dimer) FM13 + Fc_hole (ΔN2, S64N) (Fc fusion)
chain 1: B1 chain 1 with S304N
chain 2: not shown
B7: long-acting GDF15 fusion protein (dimer) FM14 + Fc_hole (ΔN2, S64D) (Fc fusion)
chain 1: B1 chain 1 with S304D
chain 2: not shown
B8: long-acting GDF15 fusion protein (dimer) FM15 + Fc_hole (ΔN2, S64E) (Fc fusion)
chain 1: B1 chain 1 with S304E
chain 2: not shown
B9: long-acting GDF15 fusion protein (dimer) FM9 + Fc_hole (ΔN2, S64R) (Fc fusion)
chain 1: B1 chain 1 with S304R
chain 2: not shown
B10: long-acting GDF15 fusion protein (dimer) FM2 + Fc_hole (ΔN3, G4N, D5S, H6T) (Fc fusion)
chain 1: APALAGGPSVFLFPPKPKDTLMISRTPEVTCVVVDVSHEDPEVKFNWYVDGVEVHNAKTKPREEQYNSTYRVVSVLTVLHQDWLNGKEYKCKVSNKALPAPIEKTISKAKGQPREPQVYTLPPSREEMTKNQVSLWCLVKGFYPSDIAVEWESNGQPENNYKTTPPVLDSDGSFFLYSKLTVDKSRWQQGNVFSCSVMHEALHNHYTQKSLSLSPGKGGGGSGGGGSGGGGSGGGGSGGGGSNSTCPLGPGRCCRLHTVRASLEDLGWADWVLSPREVQVTMCIGACPSQFRAANMHAQIKTSLHRLKPDTVPAPCCVPASYNPMVLIQKTDTGVSLQTYDDLLAKDCHCI
chain 2: not shown
B11: long-acting GDF15 fusion protein (dimer) FM11 + Fc_hole (ΔN3, G4N, D5S, H6T, S64R) (Fc fusion)
chain 1: B10 chain 1 with S303R
chain 2: not shown
B12: long-acting GDF15 fusion protein (dimer) FM12 + Fc_hole (ΔN2, R21N, S64R) (Fc fusion)
chain 1: B1 chain 1 with R261N, S304R
chain 2: not shown
B13: long-acting GDF15 fusion protein (dimer) FM3 + Fc_hole (ΔN2, R21N) (Fc fusion)
chain 1: B1 chain 1 with R261N
chain 2: not shown
B14: long-acting GDF15 fusion protein (dimer) FM1 + Fc_hole (ΔN3, WS insertion, G4N, D5S, H6T) (Fc fusion)
chain 1: APALAGGPSVFLFPPKPKDTLMISRTPEVTCVVVDVSHEDPEVKFNWYVDGVEVHNAKTKPREEQYNSTYRVVSVLTVLHQDWLNGKEYKCKVSNKALPAPIEKTISKAKGQPREPQVYTLPPSREEMTKNQVSLWCLVKGFYPSDIAVEWESNGQPENNYKTTPPVLDSDGSFFLYSKLTVDKSRWQQGNVFSCSVMHEALHNHYTQKSLSLSPGKGGGGSGGGGSGGGGSGGGGSGGGGSWSNSTCPLGPGRCCRLHTVRASLEDLGWADWVLSPREVQVTMCIGACPSQFRAANMHAQIKTSLHRLKPDTVPAPCCVPASYNPMVLIQKTDTGVSLQTYDDLLAKDCHCI
chain 2: not shown
B15: long-acting GDF15 fusion protein (dimer) FM10 + Fc_hole (ΔN3, WS insertion, G4N, D5S, H6T, S64R) (Fc fusion)
chain 1: B14 chain 1 with S305R
chain 2: not shown
B16: long-acting GDF15 fusion protein (dimer) FM9-4 + Fc_hole (ΔN2, S64R; linker GS(EEEA)6) (Fc fusion)
chain 1: APEAAGGPSVFLFPPKPKDTLMISRTPEVTCVVVDVSHEDPEVKFNWYVDGVEVHNAKTKPREEQYASTYRVVSVLTVLHQDWLNGKEYKCKVSNKALPAPIEKTISKAKGQPREPQVYTLPPSREEMTKNQVSLWCLVKGFYPSDIAVEWESNGQPENNYKTTPPVLDSDGSFFLYSKLTVDKSRWQQGNVFSCSVMHEALHNHYTQKSLSLSPGKGSEEEAEEEAEEEAEEEAEEEAEEEANGDHCPLGPGRCCRLHTVRASLEDLGWADWVLSPREVQVTMCIGACPSQFRAANMHAQIKTRLHRLKPDTVPAPCCVPASYNPMVLIQKTDTGVSLQTYDDLLAKDCHCI
chain 2: APEAAGGPSVFLFPPKPKDTLMISRTPEVTCVVVDVSHEDPEVKFNWYVDGVEVHNAKTKPREEQYASTYRVVSVLTVLHQDWLNGKEYKCKVSNKALPAPIEKTISKAKGQPREPQVYTLPPSREEMTKNQVSLSCAVKGFYPSDIAVEWESNGQPENNYKTTPPVLDSDGSFFLVSKLTVDKSRWQQGNVFSCSVMHEALHNHYTQKSLSLSPGK
B17: long-acting GDF15 fusion protein (dimer) FM9-6 + Fc_hole (ΔN2, S64R; linker GS(EAAAK)5) (Fc fusion)
chain 1: APEAAGGPSVFLFPPKPKDTLMISRTPEVTCVVVDVSHEDPEVKFNWYVDGVEVHNAKTKPREEQYASTYRVVSVLTVLHQDWLNGKEYKCKVSNKALPAPIEKTISKAKGQPREPQVYTLPPSREEMTKNQVSLWCLVKGFYPSDIAVEWESNGQPENNYKTTPPVLDSDGSFFLYSKLTVDKSRWQQGNVFSCSVMHEALHNHYTQKSLSLSPGKGSEAAAKEAAAKEAAAKEAAAKEAAAKNGDHCPLGPGRCCRLHTVRASLEDLGWADWVLSPREVQVTMCIGACPSQFRAANMHAQIKTRLHRLKPDTVPAPCCVPASYNPMVLIQKTDTGVSLQTYDDLLAKDCHCI
chain 2: B16 chain 2
B18: long-acting GDF15 fusion protein (dimer) FM9-5 + Fc_hole (ΔN2, S64R; linker GSGGSS(PT)10) (Fc fusion)
chain 1: APEAAGGPSVFLFPPKPKDTLMISRTPEVTCVVVDVSHEDPEVKFNWYVDGVEVHNAKTKPREEQYASTYRVVSVLTVLHQDWLNGKEYKCKVSNKALPAPIEKTISKAKGQPREPQVYTLPPSREEMTKNQVSLWCLVKGFYPSDIAVEWESNGQPENNYKTTPPVLDSDGSFFLYSKLTVDKSRWQQGNVFSCSVMHEALHNHYTQKSLSLSPGKGSGGSSPTPTPTPTPTPTPTPTPTPTNGDHCPLGPGRCCRLHTVRASLEDLGWADWVLSPREVQVTMCIGACPSQFRAANMHAQIKTRLHRLKPDTVPAPCCVPASYNPMVLIQKTDTGVSLQTYDDLLAKDCHCI
chain 2: B16 chain 2

What follows are binders tested against T1, GDF15 receptors GFRAL and RET, overexpressed together on HEK293 cells (UniProt Q6UXV0 19-394; P07949 29-1114, limits assumed) (assay: cell-based or functional assay).
T1 sequence (Q6UXV0 19-394 limits assumed, chain 1 of 2): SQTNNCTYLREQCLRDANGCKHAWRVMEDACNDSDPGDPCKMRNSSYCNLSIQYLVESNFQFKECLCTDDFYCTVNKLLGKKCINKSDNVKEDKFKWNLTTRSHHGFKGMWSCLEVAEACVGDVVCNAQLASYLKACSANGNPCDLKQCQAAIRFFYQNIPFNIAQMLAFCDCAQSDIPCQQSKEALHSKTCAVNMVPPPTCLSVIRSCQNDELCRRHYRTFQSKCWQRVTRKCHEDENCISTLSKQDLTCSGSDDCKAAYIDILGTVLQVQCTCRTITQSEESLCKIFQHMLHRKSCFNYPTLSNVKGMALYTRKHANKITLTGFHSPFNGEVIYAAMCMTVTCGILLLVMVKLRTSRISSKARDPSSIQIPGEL
T1 sequence (P07949 29-1114 limits assumed, chain 2 of 2): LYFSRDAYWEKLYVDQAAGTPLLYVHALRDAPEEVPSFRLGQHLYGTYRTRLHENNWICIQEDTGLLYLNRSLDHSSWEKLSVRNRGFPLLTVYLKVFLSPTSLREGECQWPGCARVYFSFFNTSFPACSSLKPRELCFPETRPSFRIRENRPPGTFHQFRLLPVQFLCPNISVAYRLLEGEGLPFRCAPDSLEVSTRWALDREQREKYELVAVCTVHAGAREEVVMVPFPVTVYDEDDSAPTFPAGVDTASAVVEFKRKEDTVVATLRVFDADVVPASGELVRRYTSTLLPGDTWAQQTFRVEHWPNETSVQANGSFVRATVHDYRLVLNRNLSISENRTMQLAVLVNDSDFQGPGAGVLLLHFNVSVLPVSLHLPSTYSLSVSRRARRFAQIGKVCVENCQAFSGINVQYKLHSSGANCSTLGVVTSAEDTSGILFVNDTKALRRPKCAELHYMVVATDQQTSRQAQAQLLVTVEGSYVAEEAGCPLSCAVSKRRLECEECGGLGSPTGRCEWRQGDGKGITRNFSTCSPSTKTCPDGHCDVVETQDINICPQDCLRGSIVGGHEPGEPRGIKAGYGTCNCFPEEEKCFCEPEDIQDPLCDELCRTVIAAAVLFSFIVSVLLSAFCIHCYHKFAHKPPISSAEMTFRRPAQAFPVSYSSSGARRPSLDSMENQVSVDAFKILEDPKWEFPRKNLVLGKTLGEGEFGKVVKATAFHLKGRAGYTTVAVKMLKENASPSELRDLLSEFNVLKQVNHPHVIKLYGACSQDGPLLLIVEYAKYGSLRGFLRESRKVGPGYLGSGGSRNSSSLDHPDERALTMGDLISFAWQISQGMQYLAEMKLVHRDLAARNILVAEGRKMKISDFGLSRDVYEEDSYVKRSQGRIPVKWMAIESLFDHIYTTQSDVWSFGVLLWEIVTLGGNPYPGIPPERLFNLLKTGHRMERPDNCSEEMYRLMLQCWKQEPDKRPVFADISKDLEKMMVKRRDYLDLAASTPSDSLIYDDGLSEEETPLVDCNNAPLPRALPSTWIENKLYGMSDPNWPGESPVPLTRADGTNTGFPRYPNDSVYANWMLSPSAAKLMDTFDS

Row | EC50 | Emax (%) [relative to FWT 100%] | Binder
1 | 7 nM | 100% | B1
2 | 3.4 nM | 133% | B2

Molecular target: T1, GDF15 receptors GFRAL and RET, …
Assay: cell-based or functional assay
Remark: another data set of the same source

Row | EC50 | Emax (%) [relative to FWT 100%] | Binder
3 | 5.4 nM | 100% | B1
4 | 8.9 nM | 86.4% | B3
5 | 10.6 nM | 110% | B4
6 | 140 nM | 34.3% | B5
7 | 3.6 nM | 140% | B2

Molecular target: T1, GDF15 receptors GFRAL and RET, …
Assay: cell-based or functional assay
Remark: another data set of the same source

Row | EC50 | Emax (%) [relative to FWT 100%] | Binder
8 | 7.3 nM | 100% | B1
9 | 9.6 nM | 93.3% | B6
10 | 7.9 nM | 48.2% | B7
11 | 33.6 nM | 41% | B8
12 | 5 nM | 123% | B9

Molecular target: T1, GDF15 receptors GFRAL and RET, …
Assay: cell-based or functional assay
Remark: another data set of the same source

Row | EC50 | Emax (%) | Binder
13 | 3.9 nM | 100% | B10
14 | 2.9 nM | 270% | B11
15 | 5.9 nM | 221% | B12
16 | 3.3 nM | 100% | B13
17 | 1.7 nM | 100% | B14
18 | 2.3 nM | 267% | B15

Molecular target: T1, GDF15 receptors GFRAL and RET, …
Assay: cell-based or functional assay
Remark: another data set of the same source

Row | EC50 | Emax (%) | Binder
19 | 23.6 nM | 128% | B16
20 | 6.3 nM | 100% | B17
21 | 5.3 nM | 100% | B18
